Measurements: patent publication US12090209B2, “Twin base linkers for virus inactivation” (priority 2020, dated 2024)
Where no end group is shown, it is not given here.

Molecular target: heat-inactivated SARS-CoV-2 spike (S) protein (Severe acute respiratory syndrome coronavirus 2, UniProt P0DTC2)

**Q.** With “TBL-SADE: TBS monomer of Formula 1 wherein L=SADE (SEQ ID NO:2) peptide, no further targeting moieties (also: TBS monomer of Formula 1, L = SADE, functionalized)” as the substance, how does the “binding to SARS-CoV-2 spike (S) protein” value read?
**A.** confirmed binding
